# Results published in paper PMC5736527, “JUNGBRUNNEN1 Confers Drought Tolerance Downstream of the HD-Zip I Transcription Factor AtHB13”.
# T1: AtHB13-GST (Arabidopsis thaliana, UniProt Q8LC03 1-294)
# T1 sequence: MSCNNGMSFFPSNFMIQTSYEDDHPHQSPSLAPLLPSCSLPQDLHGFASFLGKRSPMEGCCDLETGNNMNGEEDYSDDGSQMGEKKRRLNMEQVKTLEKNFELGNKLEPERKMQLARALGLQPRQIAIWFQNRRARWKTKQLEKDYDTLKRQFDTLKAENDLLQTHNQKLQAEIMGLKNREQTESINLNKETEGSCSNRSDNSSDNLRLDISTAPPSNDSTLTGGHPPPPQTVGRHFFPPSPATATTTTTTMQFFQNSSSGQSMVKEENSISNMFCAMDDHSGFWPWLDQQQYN
# B1: JUB1 promoter 40-bp fragment (AtHB13BS-L) (dsDNA)
# DNA 1: CTATAAAATTAGTTGCAATAAATGATTTAATTATTTTCCG
# DNA 2: CGGAAAATAATTAAATCATTTATTGCAACTAATTTTATAG
# Target: T1, AtHB13-GST
# Experiment: EMSA; 200x unlabeled same-sequence competitor also run (lane 3); EMSA as in Wu et al. 2012, Odyssey Infrared EMSA kit (LI-COR); buffer, salt, pH and temperature not stated
# Settings: protein: recombinant; tags: GST (pDEST24, C-terminal fusion); chain copies: 2; label: 5'-DY682; blunt
binder,measurement,value
B1,binding result,binds
